Data as given in patent publication US20140206846A1 (published 2014).
Residue numbers refer to the chain shown, from its start.

Assays:
VEGF = molecular target: T1, VEGF (human, UniProt P15692 27-191); assay: Biacore
T1 chain: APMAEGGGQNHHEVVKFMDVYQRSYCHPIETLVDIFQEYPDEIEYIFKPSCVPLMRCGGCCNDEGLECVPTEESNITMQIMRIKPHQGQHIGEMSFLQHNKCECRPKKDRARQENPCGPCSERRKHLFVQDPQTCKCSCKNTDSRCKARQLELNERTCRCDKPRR

IL6 = IL6 (human, UniProt P05231 30-212); assay: Biacore
human IL6 [1] = molecular target: T2, human IL6 (human, UniProt P05231 30-212); assay: Biacore; captured on GMCSF
T2 sequence (P05231 30-212): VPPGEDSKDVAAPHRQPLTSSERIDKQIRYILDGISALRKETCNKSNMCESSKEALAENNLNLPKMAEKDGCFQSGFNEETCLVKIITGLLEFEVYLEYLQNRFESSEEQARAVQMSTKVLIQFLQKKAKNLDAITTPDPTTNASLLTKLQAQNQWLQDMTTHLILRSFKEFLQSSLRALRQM

human IL6 [2] = molecular target: T2, human IL6; assay: Biacore; captured on anti-LC
MBP = assay: Biacore
GST = assay: Biacore
human IL6 [3] = molecular target: T2, human IL6; assay: Biacore

Chain of IL6 (P05231 30-212): as above

B1: IL6 P (Fab, V domains shown)
VH: EVQLVESGGGLVQPGGSLRLSCAASGFTFSSYAMSWIRQAPGKGLEWIGQISGSGGSTVYNYNVLGRFTISRDNSKNTLYLQMNSLRAEDTAVYYCARDSGYFDIWGQGTLVTVSS
VL: NIQKTQSPSSLSASVGDRVTITCRALWHISSYLAWYQQKPGKAPKLLIYAASSLYSGVPSRFSGSGSGTDFTLTISSLQPEDFATYYCQQYSGLPYTFGQGTKVEIKR
koff (VEGF): 0.00204 s⁻¹ | koff (IL6): 0.00413 s⁻¹

B2: GH6L (bispecific antibody, V domains shown)
VH: B1 VH with E1W, S25K, F27A, T28L, S31T
VL: ATQRTQSPSSLSASVGDRVTITCRALWHISSYLAWYQQKPGKAPKLLIYAASWLYWDVPSRFSGSGSGTDFTLTISSLQPEDFATYYCQQYSGLPYTFGQGTKVEIK
Kd (human IL6 [1]): 18.7 nM | Kd (human IL6 [2]): 30.4 nM

B3: Fab DT3 (bispecific antibody, V domains shown)
VH: B1 VH with E1W, S25R, T28P, S31H, V59W, Y62H, N63D, V64I, L65K, I105W
VL: GIQMTQSPSSLSASVGDRVTITCRARWYISSYLAWYQQKPGKAPKLLIFAASRLILNVPSRFSGSGSGKDFTLTISSLQPEDFATYYCQQYSELPYTFGQGTKVEIK
Kd (MBP): 313 nM | Kd (GST): 17 nM

B4: VH6L (bispecific antibody, V domains shown)
VH: B1 VH with E1Y, V2Y, S25D, T28L, S31G, S100T, I105H
VL: B2 VL with A1N, T2I, R4K, W53H, Y55H, W56Y, D57G
koff (human IL6 [3]): 0.00472 s⁻¹
